Measurements reported in patent US20050004013A1 (Scripps Research, published 2005).
Bridges are numbered along the chain shown (N, C = ends). Where no end group is shown, it is not given here.

Tests used:
[1] = target: T1, mouse R-cadherin fused to Red Fluorescent Protein, on stably transfected L-cells (mouse, UniProt P39038 167-913); test: cell-based or functional assay
T1 sequence (looked up): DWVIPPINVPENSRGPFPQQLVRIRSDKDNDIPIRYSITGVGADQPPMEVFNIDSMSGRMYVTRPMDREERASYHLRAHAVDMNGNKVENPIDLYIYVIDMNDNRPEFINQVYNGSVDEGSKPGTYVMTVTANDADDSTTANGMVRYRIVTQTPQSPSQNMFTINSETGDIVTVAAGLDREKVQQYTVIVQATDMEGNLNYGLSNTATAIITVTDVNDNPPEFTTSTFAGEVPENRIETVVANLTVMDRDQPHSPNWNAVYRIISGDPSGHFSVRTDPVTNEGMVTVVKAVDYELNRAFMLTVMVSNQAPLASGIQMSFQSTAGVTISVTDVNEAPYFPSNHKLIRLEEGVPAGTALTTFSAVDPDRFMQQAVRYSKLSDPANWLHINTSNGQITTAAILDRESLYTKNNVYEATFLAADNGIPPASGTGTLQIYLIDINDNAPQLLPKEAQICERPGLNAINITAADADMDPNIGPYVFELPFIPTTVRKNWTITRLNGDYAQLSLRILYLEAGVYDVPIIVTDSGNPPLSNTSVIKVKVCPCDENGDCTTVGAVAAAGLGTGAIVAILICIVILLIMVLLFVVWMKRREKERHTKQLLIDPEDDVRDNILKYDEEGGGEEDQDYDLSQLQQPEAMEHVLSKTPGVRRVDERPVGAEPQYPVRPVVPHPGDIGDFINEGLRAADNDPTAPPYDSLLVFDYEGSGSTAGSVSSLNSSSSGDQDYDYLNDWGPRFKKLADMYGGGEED

[2] = target: T2, mouse N-cadherin fused to Red Fluorescent Protein, on stably transfected L-cells (mouse, UniProt P15116 160-906); test: cell-based or functional assay
T2 sequence (looked up): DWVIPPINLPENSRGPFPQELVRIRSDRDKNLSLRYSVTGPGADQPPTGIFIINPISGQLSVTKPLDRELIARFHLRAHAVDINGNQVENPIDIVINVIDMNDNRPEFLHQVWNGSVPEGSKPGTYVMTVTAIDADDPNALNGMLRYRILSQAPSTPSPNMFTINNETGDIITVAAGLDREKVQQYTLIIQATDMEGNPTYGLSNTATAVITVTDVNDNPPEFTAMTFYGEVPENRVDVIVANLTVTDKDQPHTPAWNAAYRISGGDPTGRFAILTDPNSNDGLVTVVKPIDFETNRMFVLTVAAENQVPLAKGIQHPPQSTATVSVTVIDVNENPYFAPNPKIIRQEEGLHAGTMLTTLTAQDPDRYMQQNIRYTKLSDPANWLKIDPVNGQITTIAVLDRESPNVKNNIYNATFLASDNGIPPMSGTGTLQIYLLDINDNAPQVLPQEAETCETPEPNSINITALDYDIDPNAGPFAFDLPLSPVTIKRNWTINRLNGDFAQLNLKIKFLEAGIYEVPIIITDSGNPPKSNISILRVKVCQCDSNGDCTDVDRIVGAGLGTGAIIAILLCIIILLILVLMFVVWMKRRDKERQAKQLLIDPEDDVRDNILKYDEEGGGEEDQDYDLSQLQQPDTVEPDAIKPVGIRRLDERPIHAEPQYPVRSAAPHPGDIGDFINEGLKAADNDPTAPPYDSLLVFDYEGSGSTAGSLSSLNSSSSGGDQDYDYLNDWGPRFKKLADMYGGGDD

In the case of CIDSC (disulfide 1-5; not fully specified) [cyclic CIDSC (SEQ ID NO: 8)], the “IC50 of inhibition of R-cadherin mediated L-cell aggregation” value [1] is reported as ~300 µM.

For CHAVC (disulfide 1-5) [cyclic HAV peptide (CHAVC, SEQ ID NO: 20)], the “IC50 of inhibition of N-cadherin mediated L-cell aggregation” value [2] was 150 to 200 µM and the “IC50 of inhibition of R-cadherin mediated L-cell aggregation” value [1] was 150 to 200 µM.

IDSMSGR (not fully specified) [IDSMSGR (SEQ ID NO: 2)] was tested, and the “IC50 of inhibition of R-cadherin mediated L-cell adhesion (aggregation)” value [1] was ~900 µM and the “effectiveness relative to cyclic IDS in the aggregation assay” value [1] was ~3 fold lower.

CINPC (disulfide 1-5; not fully specified) [cyclic CINPC (SEQ ID NO: 9)] was tested, and the “IC50 of inhibition of N-cadherin mediated L-cell aggregation” value [2] was < 300 µM.
